Target: T1, recombinant human αMβ2 αI domain (human)
T1 construct: αI domain (von Willebrand factor type A domain) of integrin αM (CD11b), human; numbers count on: the mature protein; PDB 4M76 (cited) holds an αI–C3d complex of the same laboratory; also called hαI; human αI domain
T1 chain: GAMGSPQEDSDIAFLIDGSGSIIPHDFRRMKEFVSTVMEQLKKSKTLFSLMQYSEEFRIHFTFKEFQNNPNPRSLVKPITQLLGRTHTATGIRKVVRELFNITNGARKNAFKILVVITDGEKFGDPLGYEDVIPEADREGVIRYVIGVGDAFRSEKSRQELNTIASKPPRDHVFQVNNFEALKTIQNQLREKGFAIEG
Test: BLI; His-tagged hCD11bNb1 on anti-penta-HIS sensors; αMβ2 HP 6.25-50 nM or αI domain 0.8-25 nM in solution; 30 °C; 20 mM Hepes pH 7.5, 150 mM NaCl, 5 mM MgCl2, 1 mM CaCl2; 1:1 model; triplicates; apparent
Settings: both partners purified

B1: nanobody hCD11bNb1 (His-tagged) (VHH)
VHH: QVQLVETGGGLVQAGGSLRLSCAASGNINSFNAMGWFRQAPGKQRELVAAITFGGRTNYADSVKGRFTISRDNTKGSVYLQMNSLKPEDTAVYYCAASENNLLTGVWHYWGRGTQVTVSS
notes: nanobody selected by phage display from a llama immunised with the αMβ2 HP; they are in PDB 7NP9 (nanobody alone) and PDB 7P2D (complex); Captured through its His tag on anti-penta-HIS BLI sensors. pET-22b(+) usually adds a C-terminal His6 (surmise); also called parental hCD11bNb1; WT hCD11bNb1
Kd: 1 to 6 nM

Source: paper PMC9287160, “Structural insights into the function-modulating effects of nanobody binding to the integrin receptor αMβ2” (The Journal of Biological Chemistry, 2022)
